Results on one substance are retold here after paper PMC7168832.

In experiment [1] the target is prohibitin-2 isoform 1 (human (endogenous in SH-SY5Y, U-87 MG, CHME-3)) (UniProt Q99623).
In experiment [2] the target is prohibitin isoform 1 (human (endogenous in SH-SY5Y, U-87 MG, CHME-3)) (UniProt P35232).
Experiment [3] has as its target prohibitin-2 isoform 1 (human (endogenous in SH-SY5Y, U-87 MG, CHME-3)) (UniProt Q99623). The source holds these as a separate data set.
The target in experiment [4] is prohibitin isoform 1 (human (endogenous in SH-SY5Y, U-87 MG, CHME-3)) (UniProt P35232). The source holds these as a separate data set.
Experiment [5] has as its target prohibitin-2 isoform 1 (human (endogenous in SH-SY5Y, U-87 MG, CHME-3)) (UniProt Q99623). The source holds these as a separate data set.

UniProt P35232, sequence (P35232 whole entry, canonical isoform): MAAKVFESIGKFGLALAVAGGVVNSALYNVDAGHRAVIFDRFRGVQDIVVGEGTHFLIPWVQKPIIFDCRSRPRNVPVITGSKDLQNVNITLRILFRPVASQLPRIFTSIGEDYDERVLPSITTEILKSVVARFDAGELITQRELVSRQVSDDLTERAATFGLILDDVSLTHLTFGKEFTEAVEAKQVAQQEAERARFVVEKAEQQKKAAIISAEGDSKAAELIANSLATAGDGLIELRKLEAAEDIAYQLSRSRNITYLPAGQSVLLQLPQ
UniProt Q99623, sequence (Q99623 whole entry, canonical isoform): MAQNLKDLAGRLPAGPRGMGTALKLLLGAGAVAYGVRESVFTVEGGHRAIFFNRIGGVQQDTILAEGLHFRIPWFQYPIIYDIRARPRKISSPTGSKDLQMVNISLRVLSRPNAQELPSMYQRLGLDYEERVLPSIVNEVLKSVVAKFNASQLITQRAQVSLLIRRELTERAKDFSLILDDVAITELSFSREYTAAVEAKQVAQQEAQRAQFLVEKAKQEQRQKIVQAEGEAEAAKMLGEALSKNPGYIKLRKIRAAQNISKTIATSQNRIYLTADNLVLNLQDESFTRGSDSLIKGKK

With “DENV-3 (16562), purified virus (complex)”, the entry assay: reduction in virus titre, CHME-3 cells with bound DENV-3 (MOI 100) treated with PHB2 polyclonal antibody at 37 °C for 1.5 h in experiment [1] was determined as 82%. In experiment [2], this substance had a reduction in DENV-3 plaques, CHME-3 cells pre-incubated with PHB1 antibody of 73.3% and a reduction in DENV-3 plaques, SH-SY5Y cells pre-incubated with anti-PHB1 antibody of 55%. In experiment [3], the reduction in DENV-3 plaques, CHME-3 cells pre-incubated with PHB2 antibody was 82.2% and the reduction in DENV-3 plaques, SH-SY5Y cells pre-incubated with anti-PHB2 antibody was 75%. The % fluorescent (DENV-3 antigen) positive SH-SY5Y cells by IFA 30 h PI, cells pre-incubated with anti-PHB1 antibody, 1 to 2 μg (17 to 10%; virus control 40%, anti-actin control 35%) in experiment [4] was determined as 17%. The substance also showed a % fluorescent (DENV-3 antigen) positive SH-SY5Y cells by IFA 30 h PI, cells pre-incubated with anti-PHB2 antibody, 1 to 2 μg (11 to 6%; virus control 40%, anti-actin control 35%) in experiment [5] of 11%.
